The assay addresses T1, human LILRB4 in TIL regions of lung squamous cell carcinoma tissue specimens (human, UniProt Q8NHJ6 24-258).
T1 construct: Native LILRB4 on cells in patient tissue sections; also called immunosuppressive receptor LILRB4
As to the kind of experiment: immunohistochemical staining of lung squamous cell carcinoma tissue specimens. As to the method:
Immunohistochemical staining was performed using the anti-human LILRB4 monoclonal antibody #10 obtained in Experimental Example 6, which inhibits binding between fibronectin and human LILRB4, on each of the lung squamous cell carcinoma tissue specimens whose LILRB4 expression was previously determined to be strongly positive (High), medium positive (Medium) or weakly positive (Low), with goat anti-human LILRB4 polyclonal antibodies (available from R & D Systems). The results are illustrated in FIG. 3.

B1: anti-human LILRB4 monoclonal antibody #10 (antibody, V domains shown)
VH: EVMLVESGGGLVQPGGSRKLSCAASGFTFSSFGMHWVRQAPEKGLEWVAYISSGSSTIYYVDTVKGRFTISRDNPKNTLFLQMTSLRSEDTAMYYCARSTGTGAMDYWGQGTSVTVSS
VL: DIQMTQTTSSLSASLGDRVTISCRASQDISNYLNWYQQKPDGTVKLLIYYTLRLYSGVPSRFSGSGSGTDYSLTISNLEQEDIATYFCQQGNTLPWTFGGGTKLEIK
notes: In the reporter assay it was used as hybridoma culture supernatant; also called anti-LILRB4 monoclonal antibody
Regarding B1, the binding result is “binds”.

Source of the values: patent US20240318262A1 (TOHOKU UNIVERSITY, published 2024).
